What was measured:
[1] = target: the molecule itself; assay: SEC, self-association into poly-rIgA1
[2] = target: the molecule itself; assay: SEC, non-reducing SDS-PAGE and TEM; self-association of rIgA duplexes into poly-rIgA
Experimental: Before running on SEC, samples were treated with the drugs at indicated concentrations at 37° C. for one hour.
(§1) In the meantime, the SEC column was also equilibrated with PBS supplemented with the reducing agent at the same concentration. For running SEC, 100 μL of the recombinant IgA (concentration varies between 1 mg/mL and 8 mg/mL) or purified native human IgA1 (˜1 mg/mL) was loaded to the column and UV absorption was recorded following elution. Recombinant IgA typically formed two elution peaks: a minor peak of ˜800 kDa poly-rIgA followed by a major peak of ˜170 kDa of monomeric rIgA. The ratios between poly-rIgA and mono-rIgA were calculated as between the corresponding areas under the curve (AUC), and the treatment effect of the thiol agents was judged by the reduction of the poly-rIgA level with a compensatory increase of the mono-rIgA content.
To further investigate specific cysteine residue(s) involved in IgA complexes, expression vectors were constructed to produce recombinant IgA (rIgA) Fc segments of rat and human sequences (FIG. 2, part A) as discussed above. Rat IgA analogs were expressed in BL21 DE3 strain of E. coil and recombinant protein were purified from the bacterial lysate using Histrap HP columns (GE Healthcare) by running fast protein liquid chromatography (FPLC). […]

[3] = target: the molecule itself; assay: SEC, self-association into poly-rIgA
Experimental: as §1
Considering that the fragment contained Cys311 and Cys471 that, in the absence of J-chain and SC, were in their free forms and available for connecting other rIgA units, mutagenesis studies were conducted of these two cysteines. Cys311 and Cys471 were either individually, or together, mutated to serine (S) as discussed above. […] By examining the SEC traces of these mutants, it was noticed that, while the monomers of all variants appeared the same, there were dramatic differences in the poly-rIgA contents. […] Meanwhile, C311S-alone still had poly-rIgA contents, albeit eluted at a different time in SEC than the wild-type protein (FIG. 3, part F). […]

B1: human rIgA1-Fc (human IgA1-Fc CH2-CH3-TP) (other)
chain: SCCHPRLSLHRPALEDLLLGSEANLTCTLTGLRDASGVTFTWTPSSGKSAVQGPPERDLCGCYSVSSVLPGCAEPWNHGKTFTCTAAYPESKTPLTATLSKSGNTFRPEVHLLPPPSEELALNELVTLTCLARGFSPKDVLVRWLQGSQELPREKYLTWASRQEPSQGTTTFAVTSILRVAAEDWKKGDTFSCMVGHEALPLAFTQKTIDRLAGKPTHVNVSVVMAEVDGTCY
notes: Produced in HEK293 cells, secreted; also called hu-rIgA; wild-type rIgA1; not shown: 6xHis-tag at the N-terminus after the IL-2 signal peptide (secreted)
[1]
  binding result: binds

B2: wild-type rat IgA-Fc segment of CH2-CH3-TP (recombinant rat rIgA) (other)
chain: SCSLVCRPRLSLQRPALEDLLLGSEASLTCTLRGLKEPTGAVFTWQPTTGKDAVQKEAVQDSCGCYTVSSVLPGCAERWNNGETFTCTATHPEFETPLTGEIAKVTENTFPPQVHLLPPPSEELALNELVSLTCLVRGFNPKDVLVRWLQGNEELPSESYLVFEPLREPGEGAITYLVTSVLRVSAETWKQGAQYSCMVGHEALPMSFTQKTIDRLSGKPTNVNVSVIMSEGDGICY
notes: Expressed in E. coli BL21 DE3; Two chains form a duplex called mono-rIgA; poly-rIgA is its disulfide-linked self-aggregate; also called mono-rIgA; poly-rIgA; not shown: N-terminal 6xHis-tag from the PET30a vector
[2]
  binding result: binds

B3: rat rIgA C311S single mutant (other)
chain: SCSLVCRPRLSLQRPALEDLLLGSEASLTCTLRGLKEPTGAVFTWQPTTGKDAVQKEAVQDSCGCYTVSSVLPGSAERWNNGETFTCTATHPEFETPLTGEIAKVTENTFPPQVHLLPPPSEELALNELVSLTCLVRGFNPKDVLVRWLQGNEELPSESYLVFEPLREPGEGAITYLVTSVLRVSAETWKQGAQYSCMVGHEALPMSFTQKTIDRLSGKPTNVNVSVIMSEGDGICY
notes: also called C311S-alone; not shown: N-terminal 6xHis-tag from the PET30a vector
[3]
  binding result: binds
